B1: P7S, Q5NV88 (parent)
chain: NFMLTQPHSVSESPGKTVTISCTRSSGSIASNYVQWYQQRPGSSPTTVIYEDNQRPSGVPDRFSGSIDSSSNSASLTISGLKTEDEADYYCQSYDSSN

Variants of: B1
Details: Homo sapiens, pH 7.5, Fluorescence, Sodium phosphate 20mM, transition: 2, structure 2W0K, whole UniProt chain shown

Row | Variant | ddG of mutation (higher = less stable) (25 °C, GdnHCl) [kcal/mol] | denaturant midpoint (higher = more stable) (25 °C, GdnHCl) [M] | unfolding free energy (25 °C, GdnHCl) [kcal/mol] | Tm (Thermal) [°C] | change of melting temperature, mutant - wild type (higher = more stable) (Thermal) [°C] | ddG of mutation (higher = less stable) (Thermal) [kcal/mol] | unfolding enthalpy (calorimetric) (Thermal) [kcal/mol] | unfolding free energy (Thermal) [kcal/mol]
1 | NFMLTQSHSVSESPGKTVTISCTRSSGSIASNYVQWYQQRPGSSPTTVIYEDNQRPSGVPDRFSGSIDSSSNSASLTISGLKTEDEADYYCQSYDSSN | 2.6 | 0.84 | 2.5 | 43 | -6.9 | 1.5 | 79.5 | 3.7
2 | NFMLTQPSSVSESPGKTVTISCTRSSGSIASNYVQWYQQRPGSSPTTVIYEDNQRPSGVPDRFSGSIDSSSNSASLTISGLKTEDEADYYCQSYDSSN | 0.6 | 1.28 | 4.5 | 49.5 | -0.4 | 0.2 | 84.4 | 5
3 | NFMLTQSSSVSESPGKTVTISCTRSSGSIASNYVQWYQQRPGSSPTTVIYEDNQRPSGVPDRFSGSIDSSSNSASLTISGLKTEDEADYYCQSYDSSN |  |  |  | 43.7 | -6.2 | 1.4 | 79.4 | 3.8
4 | NFMLTQPPSVSESPGKTVTISCTRSSGSIASNYVQWYQQRPGSSPTTVIYEDNQRPSGVPDRFSGSIDSSSNSASLTISGLKTEDEADYYCQSYDSSN |  |  |  | 50.1 | 0.2 | 0.8 | 84.8 | 4.4
